Measured values as given in publication PMC10823224 (2024).

Biological target: fusion-competent ectodomain of influenza virus A/PR8/34 (Ecto-PR8/34) hemagglutinin (influenza virus A/PR/8/34, UniProt P03452 18-528)
Test: BLI

Chain of fusion-competent ectodomain of influenza virus A/PR8/34 (Ecto-PR8/34) hemagglutinin (P03452 18-528): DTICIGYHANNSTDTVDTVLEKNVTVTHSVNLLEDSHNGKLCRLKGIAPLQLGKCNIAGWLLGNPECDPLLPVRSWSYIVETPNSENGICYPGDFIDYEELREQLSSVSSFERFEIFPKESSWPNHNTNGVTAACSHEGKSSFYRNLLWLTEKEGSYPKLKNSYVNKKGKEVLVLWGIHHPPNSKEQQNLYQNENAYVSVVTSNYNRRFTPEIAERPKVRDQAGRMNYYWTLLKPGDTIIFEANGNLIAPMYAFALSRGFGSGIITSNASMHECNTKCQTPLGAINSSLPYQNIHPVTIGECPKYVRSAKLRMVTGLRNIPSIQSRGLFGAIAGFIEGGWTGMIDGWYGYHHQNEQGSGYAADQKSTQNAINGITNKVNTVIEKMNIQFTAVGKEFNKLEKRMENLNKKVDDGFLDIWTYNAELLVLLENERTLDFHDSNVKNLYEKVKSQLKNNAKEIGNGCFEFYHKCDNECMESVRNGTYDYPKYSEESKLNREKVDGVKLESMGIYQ

B1: anti-HA antibody C179 (antibody, V domains shown)
VH: EVKLVESGGGLVQPGGSLRLSCGTSGFTLTDDYMTWVRQPPGKALEWLGFIRDRANGYTTEYSASVKGRFTISRDNSQSIVYLQMNTLRVEDSATYYCARPKGYFPYAMDYWGQGTSVIVSS
VL: DIQMTQSPASQSASLGESVTITCLASQTIGTWLAWYQQKPGKSPQLLIYAATSLADGVPSRFSGSGSGTKFSFKISSLQAEDFVSYYCQQLYSTPWTFGGGTRLEIKR
- Kd: 18.4 nM
